The values below are quoted from earlier work in PMC8666702 (Hypertension (Dallas, Tex. : 1979), 2021).

In data set [1] the test system is insulin degrading enzyme (IDE).

On to atrial natriuretic peptide [ANP], for which, in the data set on neprilysin (NEP), the “Degradation by neprilysin (NEP)” value is “rapid degradation”. Besides, the “Degradation by insulin degrading enzyme (IDE)” value in data set [1] is reported as “rapid degradation”.
